For this test, the target named is biotin-labeled soluble FcRn. As to the kind of experiment: FcRn ELISA pH 6.0. A general note: An ELISA detects its analyte on a solid surface through an enzyme-linked reagent.
In the case of anti-CD20 IgG1 Q438G (antibody), the FcRn pH6.0 (% of wild type) is 98.

The substance anti-CD20 IgG1 P247R (antibody) showed a FcRn pH6.0 (% of wild type) of 72. anti-CD20 IgG1 N315P (antibody) returned a FcRn pH6.0 (% of wild type) of 14.

anti-CD20 IgG1 T256H (antibody): the FcRn pH6.0 (% of wild type) came to 26. For anti-CD20 IgG1 V279T (antibody), the FcRn pH6.0 (% of wild type) amounted to 265. In turn, anti-CD20 IgG1 D376H (antibody) displayed a FcRn pH6.0 (% of wild type) of 81. With anti-CD20 IgG1 330K332D (antibody), the FcRn6.0 (% of wild type) turned out to be 88. Take anti-CD20 IgG1 R292E (antibody): the FcRn pH6.0 (% of wild type) stood at 65.

Regarding anti-CD20 IgG1 Y373G (antibody), the FcRn pH6.0 (% of wild type) amounted to 38. Same read-out and setting: the figure for anti-CD20 IgG1 S426D (antibody) is 65.

Consider anti-CD20 IgG1 V279R (antibody), for which the FcRn pH6.0 (% of wild type) turned out to be 130. Regarding anti-CD20 IgG1 G341Y (antibody), the FcRn pH6.0 (% of wild type) worked out at 54.

Turning to anti-CD20 IgG1 P238W (antibody), the FcRn pH6.0 (% of wild type) amounted to 87. The substance anti-CD20 IgG1 K439H (antibody) yielded a FcRn pH6.0 (% of wild type) of 99. In turn, anti-CD20 IgG1 P271T (antibody) had a FcRn pH6.0 (% of wild type) of 96. anti-CD20 IgG1 L251H (antibody): the FcRn pH6.0 (% of wild type) is 46. With anti-CD20 IgG1 P329Y (antibody), the FcRn pH6.0 (% of wild type) worked out at 107. The same measure, in the same setting: next, anti-CD20 IgG1 V279L (antibody): 78. anti-CD20 IgG1 I332K (antibody) registered a FcRn pH6.0 (% of wild type) of 146. Consider anti-CD20 IgG1 T250R (antibody), for which the FcRn pH6.0 (% of wild type) was 62. The substance anti-CD20 IgG1 S440Y (antibody) registered a FcRn pH6.0 (% of wild type) of 100. anti-CD20 IgG1 P247Y (antibody) came in with a FcRn pH6.0 (% of wild type) of 7.

anti-CD20 IgG1 P247A (antibody): the FcRn pH6.0 (% of wild type) amounted to 97. In the case of anti-CD20 IgG1 D376W (antibody), the FcRn pH6.0 (% of wild type) was determined as 1. anti-CD20 IgG1 I377P (antibody) showed a FcRn pH6.0 (% of wild type) of 98. On the same count and under the same terms, next, anti-CD20 IgG1 E283G (antibody): 137. Take anti-CD20 IgG1 283R376V (antibody): the FcRn6.0 (% of wild type) came to 475. Substance anti-CD20 IgG1 I253A (antibody) registered a FcRn pH6.0 (% of wild type) of 0. Same read-out and setting: the figure for anti-CD20 IgG1 G341H (antibody) is 65; for anti-CD20 IgG1 D265S (antibody) it is 66. On the same count and under the same terms, the figure for anti-CD20 IgG1 P238I (antibody) is 94; for anti-CD20 IgG1 E430N (antibody) it is 171. anti-CD20 IgG1 E283M (antibody): the FcRn pH6.0 (% of wild type) is 95. On the same count and under the same terms, the figure for anti-CD20 IgG1 Y373E (antibody) is 106. For anti-CD20 IgG1 268D332E (antibody), the FcRn6.0 (% of wild type) stood at 92. With anti-CD20 IgG1 Q311W (antibody), the FcRn pH6.0 (% of wild type) worked out at 215. Substance anti-CD20 IgG1 256P332E (antibody) gave a FcRn6.0 (% of wild type) of 121. In turn, anti-CD20 IgG1 330K332E (antibody) had a FcRn6.0 (% of wild type) of 94. For the substance anti-CD20 IgG1 D376A (antibody), the FcRn pH6.0 (% of wild type) came to 155. anti-CD20 IgG1 N315L (antibody): the FcRn pH6.0 (% of wild type) is 103. As to anti-CD20 IgG1 I332W (antibody), the FcRn pH6.0 (% of wild type) was 123. Same read-out and setting: next, anti-CD20 IgG1 R255K (antibody): 41. Substance anti-CD20 IgG1 G341N (antibody) gave a FcRn pH6.0 (% of wild type) of 53. As to anti-CD20 IgG1 257I311I (antibody), the FcRn6.0 (% of wild type) came to 409. Take anti-CD20 IgG1 D270M (antibody): the FcRn pH6.0 (% of wild type) was 81.

With anti-CD20 IgG1 E430F (antibody), the FcRn pH6.0 (% of wild type) was found to be 218. In turn, anti-CD20 IgG1 E382D (antibody) came in with a FcRn pH6.0 (% of wild type) of 73.

The substance anti-CD20 IgG1 E293S (antibody) had a FcRn pH6.0 (% of wild type) of 101.

anti-CD20 IgG1 T256Y (antibody) showed a FcRn pH6.0 (% of wild type) of 68. Substance anti-CD20 IgG1 R292A (antibody) registered a FcRn pH6.0 (% of wild type) of 85.

On to anti-CD20 IgG1 G236F (antibody), for which the FcRn pH6.0 (% of wild type) was determined as 88.

Turning to anti-CD20 IgG1 S424V (antibody), the FcRn pH6.0 (% of wild type) amounted to 57. As to anti-CD20 IgG1 S254T (antibody), the FcRn pH6.0 (% of wild type) was 32.

The substance anti-CD20 IgG1 258D311I (antibody) came in with a FcRn6.0 (% of wild type) of 522.

The substance anti-CD20 IgG1 S424H (antibody) displayed a FcRn pH6.0 (% of wild type) of 97.

In turn, anti-CD20 IgG1 S267K (antibody) gave a FcRn pH6.0 (% of wild type) of 102. For anti-CD20 IgG1 Y373K (antibody), the FcRn pH6.0 (% of wild type) is 70. anti-CD20 IgG1 G341K (antibody) showed a FcRn pH6.0 (% of wild type) of 67. For the substance anti-CD20 IgG1 D376V (antibody), the FcRn pH6.0 (% of wild type) came to 251. The substance anti-CD20 IgG1 A339S (antibody) gave a FcRn pH6.0 (% of wild type) of 95. Consider anti-CD20 IgG1 P343H (antibody), for which the FcRn pH6.0 (% of wild type) was 191.

On to anti-CD20 IgG1 E382L (antibody), for which the FcRn pH6.0 (% of wild type) was 126. For anti-CD20 IgG1 314Y332E440Y (antibody), the FcRn6.0 (% of wild type) turned out to be 82. On to anti-CD20 IgG1 E272H (antibody), for which the FcRn pH6.0 (% of wild type) came to 157.

In turn, anti-CD20 IgG1 A339Q (antibody) gave a FcRn pH6.0 (% of wild type) of 102. Consider anti-CD20 IgG1 S254L (antibody), for which the FcRn pH6.0 (% of wild type) came out at 74.

anti-CD20 IgG1 332E376V (antibody) gave a FcRn6.0 (% of wild type) of 132.

The substance anti-CD20 IgG1 P238H (antibody) registered a FcRn pH6.0 (% of wild type) of 72. Still for that read-out and setting: next, anti-CD20 IgG1 E382K (antibody): 153. In the case of anti-CD20 IgG1 D265Y (antibody), the FcRn pH6.0 (% of wild type) worked out at 33. Take anti-CD20 IgG1 P343E (antibody): the FcRn pH6.0 (% of wild type) is 345. With anti-CD20 IgG1 E430T (antibody), the FcRn pH6.0 (% of wild type) amounted to 137. anti-CD20 IgG1 G341P (antibody): the FcRn pH6.0 (% of wild type) was determined as 127.

For anti-CD20 IgG1 P247Q (antibody), the FcRn pH6.0 (% of wild type) turned out to be 26. anti-CD20 IgG1 286F311I (antibody): the FcRn6.0 (% of wild type) was determined as 412. anti-CD20 IgG1 E430D (antibody) showed a FcRn pH6.0 (% of wild type) of 44. The substance anti-CD20 IgG1 S304E (antibody) yielded a FcRn pH6.0 (% of wild type) of 101.

Take anti-CD20 IgG1 S254K (antibody): the FcRn pH6.0 (% of wild type) was 9.

The record behind these values is patent US20070224188A1.
